Data reported in patent US20260250402A1 (C O INMAGENE PTE, published 2026).
Where two headings read alike, the source gives them in different places.

T1: human IL-7Ra expressed on CHOK1-human IL-7Ra cells (human, UniProt P16871 21-459)
T1 construct: also called human IL-7Ra expressed on cell membrane; CD127
T1 sequence: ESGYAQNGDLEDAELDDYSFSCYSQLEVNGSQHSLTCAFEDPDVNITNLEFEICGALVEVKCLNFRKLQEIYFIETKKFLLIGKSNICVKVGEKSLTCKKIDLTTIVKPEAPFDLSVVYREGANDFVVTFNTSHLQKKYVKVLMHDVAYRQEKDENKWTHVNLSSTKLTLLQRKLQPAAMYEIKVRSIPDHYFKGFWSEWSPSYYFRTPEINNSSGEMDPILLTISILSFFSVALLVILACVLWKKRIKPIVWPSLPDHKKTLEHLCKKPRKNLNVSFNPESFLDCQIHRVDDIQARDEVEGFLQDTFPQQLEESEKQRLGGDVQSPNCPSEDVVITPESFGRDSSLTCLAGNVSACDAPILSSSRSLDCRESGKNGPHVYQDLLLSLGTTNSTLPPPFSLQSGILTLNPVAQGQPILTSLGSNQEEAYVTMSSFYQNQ

T2: cynomolgus IL-7Ra expressed on CHOK1-cyno IL-7Ra cells (cynomolgus, UniProt Q38IC7 21-459)
T2 sequence: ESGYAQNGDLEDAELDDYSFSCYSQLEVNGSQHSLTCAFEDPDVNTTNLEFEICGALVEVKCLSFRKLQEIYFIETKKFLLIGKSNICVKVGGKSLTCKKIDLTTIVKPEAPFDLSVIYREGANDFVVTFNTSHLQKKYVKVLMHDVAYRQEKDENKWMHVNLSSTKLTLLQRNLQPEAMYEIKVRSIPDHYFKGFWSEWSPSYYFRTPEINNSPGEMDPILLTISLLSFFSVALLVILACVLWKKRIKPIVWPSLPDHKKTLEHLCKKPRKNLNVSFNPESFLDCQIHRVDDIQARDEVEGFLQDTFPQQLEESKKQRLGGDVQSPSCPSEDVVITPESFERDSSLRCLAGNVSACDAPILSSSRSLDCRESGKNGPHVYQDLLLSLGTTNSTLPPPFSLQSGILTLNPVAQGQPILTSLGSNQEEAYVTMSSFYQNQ

T3: human Fc-tag IL-7Ra protein (human, UniProt P16871 21-239)
T3 construct: also called human IL-7Ra protein; not shown: Fc tag fused to the N-terminus
T3 sequence: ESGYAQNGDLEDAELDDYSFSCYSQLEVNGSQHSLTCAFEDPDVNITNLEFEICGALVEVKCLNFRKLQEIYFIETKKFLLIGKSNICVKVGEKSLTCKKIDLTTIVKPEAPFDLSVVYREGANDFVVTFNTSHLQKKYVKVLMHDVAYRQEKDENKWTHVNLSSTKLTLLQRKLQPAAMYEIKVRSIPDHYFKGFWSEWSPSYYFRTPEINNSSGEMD

T4: Human his-tag IL-7Ra protein (human, UniProt P16871 21-239)
T4 construct: Construct not described; Position of the tag unknown; also called IL-7Ra (Biacore analyte); not shown: his tag
T4 sequence: T3 sequence

T5: cynomolgus Fc-tag IL-7Ra protein (cynomolgus, UniProt Q38IC7 21-240)
T5 construct: also called cynomolgus IL-7Ra protein; not shown: Fc tag
T5 sequence: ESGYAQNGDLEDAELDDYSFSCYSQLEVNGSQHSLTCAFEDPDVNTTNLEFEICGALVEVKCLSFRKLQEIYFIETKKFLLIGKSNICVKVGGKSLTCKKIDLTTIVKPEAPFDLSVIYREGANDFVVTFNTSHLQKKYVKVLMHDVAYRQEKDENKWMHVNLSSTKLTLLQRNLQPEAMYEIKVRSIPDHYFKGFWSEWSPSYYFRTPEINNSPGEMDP

B1: OSE127 (Tab2) (antibody, human IgG4 S228P, kappa, V domains shown)
VH: QVQLVESGGGLVKPGGSLRLSCAVSGFTLSDYYMAWIRQAPGKGLEWVSTISASGLRTYYPDSVKGRFTISRDNAKNSLYLQMNSLRAEDTAVYYCARPLSAHYGFNYFDYWGQGTLVTVSS
VL: DIQMTQSPSSLSASVGDRVTITCRTSEDIYQGLAWYQQKPGKAPKLLLYSANTLHIGVPSRFSGSGSGTDYTLTISSLQPEDFATYYCQQYYDYPLAFGGGTKVEIKR
notes: also called benchmark antibody OSE127
B2: cmAb011 (chimeric Ab011) (antibody, V domains shown)
VH: QVQLQQSGAELMRPGASVTLSCKTSGYRFTDYELHWVKQTPVRGLEWIGGIDPKTGGTAYNQKFKGKAILTSDRSSSTTYMELRSLASEDSAVYYCTRSGGRWYFDVWGTGTTVTVSS
VL: DIVLTQSPASLAVSLGQRATISCRTSESVSIHLLHLMHWYQQKPGQPPKLLIYGASNLESGVPARFSGSGSETDFTLNIHPVEEEDAATYFCQQSIKDPYTFGGGTKLEIKR
notes: also called chimeric antibody Ab011
B3: ADX-914 (Tab1) (antibody, human IgG1, kappa, V domains shown)
VH: EVQLVESGGGLVQPGRSLRLSCAASGFTFDDHAMHWVRQAPGKGLEWVSGISWNSRGIGYADSVKGRFTIFRDNAKNSLYLQMNSLRAEDTALYYCAKDEYSRGYYVLDVWGQGTTVTVSS
VL: AIQLTQSPSSLSASVGDRVTITCRASQGISSALAWYQQKPGKAPKLLIYDASSLESGVPSRFSGSGSGTDFTLTISSLQPEDFATYYCQQFNSYPLWITFGQGTRLEIKR
notes: also called benchmark antibody ADX-914
B4: HuAb013 (antibody, V domains shown)
VH: QVQLVQSGAEVKKPGASVKVSCKASGYRFTDYELHWVRQAPGQGLEWMGGIDPKTGGTAYNQKFKGKVTLTSDRSTSTVYMELSSLRSEDTAVYYCARSGGRWYFDVWGQGTTVTVSS
VL: DIVLTQSPASLAVSPGQRATITCRTSESVSIHLLHLMHWYQQKPGQPPKLLIYGASNLESGVPARFSGSGSGTDFTLTINPVEAEDTANYYCQQSIKDPYTFGGGTKVEIK
notes: Humanized version of cmAb011; also called humanized VL1 / humanized VH4

Columns and labels:
[1] = biological target: cynomolgus IL-7Ra expressed on CHOK1-cyno IL-7Ra cells (cynomolgus) (UniProt Q38IC7); experiment: flow cytometry, CHOK1-cyno IL-7Ra cells; negative control
[2] = biological target: human IL-7Ra expressed on CHOK1-human IL-7Ra cells (human) (UniProt P16871); experiment: flow cytometry, CHOK1-human IL-7Ra cells; negative control
[3] = biological target: T1, human IL-7Ra expressed on CHOK1-human …; experiment: flow cytometry on CHOK1-human IL-7Ra cells, MFI (upper left panel)
[4] = biological target: T2, cynomolgus IL-7Ra expressed on …; experiment: flow cytometry, CHOK1-cyno IL-7Ra cells
[5] = biological target: T2, cynomolgus IL-7Ra expressed on …; experiment: flow cytometry on CHOK1-cyno IL-7Ra cells, MFI (upper right panel)
[6] = biological target: T3, human Fc-tag IL-7Ra protein; experiment: ELISA, plate coated with human Fc-tag IL-7Ra protein, HRP-labelled secondary antibody, OD 450 (left panel)
[7] = biological target: T1, human IL-7Ra expressed on CHOK1-human …; experiment: flow cytometry, CHOK1-human IL-7Ra cells
[8] = biological target: T1, human IL-7Ra expressed on CHOK1-human …; experiment: flow cytometry blocking assay: binding of hIL-7-his (0.1 ug/ml) to CHOK1-human IL-7Ra cells in the presence of the antibody, anti-His Alexa Fluor 488, MFI (right panel)
[9] = biological target: T4, Human his-tag IL-7Ra protein; experiment: SPR Biacore 8K, antibody Fc-captured, human his-tag IL-7Ra analyte, 1:1 model
[10] = biological target: T2, cynomolgus IL-7Ra expressed on …; experiment: flow cytometry on CHOK1-cyno IL-7Ra cells, MFI (upper right panel); remark: listed apart in the source
[11] = biological target: T1, human IL-7Ra expressed on CHOK1-human …; experiment: flow cytometry on CHOK1-human IL-7Ra cells, MFI (upper left panel); remark: listed apart in the source
[12] = biological target: T5, cynomolgus Fc-tag IL-7Ra protein; experiment: ELISA, cynomolgus Fc-tag IL-7Ra protein, HRP-labelled secondary antibody, OD 450 (right panel)
[13] = biological target: T1, human IL-7Ra expressed on CHOK1-human …; experiment: flow cytometry blocking assay: binding of hIL-7-his (0.1 ug/ml) to CHOK1-human IL-7Ra cells in the presence of the antibody, anti-His Alexa Fluor 488, MFI (left panel)
[14] = biological target: T1, human IL-7Ra expressed on CHOK1-human …; experiment: flow cytometry blocking assay: binding of hIL-7-his to CHOK1-human IL-7Ra cells in the presence of the antibody, MFI (right panel)

| Molecule | EC50 [1] [µg/mL] | Top (MFI) [1] [MFI] | EC50 [2] [µg/mL] | Top (MFI) [2] [MFI] | EC50 (read off the curve) [3] [µg/mL] | EC50 [4] [µg/mL] | Top (MFI) [4] [MFI] | EC50 (read off the curve) [5] [µg/mL] | EC50 (read off the curve) [6] [µg/mL] | EC50 [7] [µg/mL] | Top (MFI) [7] [MFI] | IC50 (read off the curve) [8] [µg/mL] | Kd [9] [nM] | koff [9] [s⁻¹] | kon [9] [M⁻¹ s⁻¹] | EC50 (read off the curve) [10] [µg/mL] | EC50 (read off the curve) [11] [µg/mL] | EC50 (read off the curve) [12] [µg/mL] | IC50 (read off the curve) [13] [µg/mL] | IC50 (read off the curve) [14] [µg/mL] |
| --- | --- | --- | --- | --- | --- | --- | --- | --- | --- | --- | --- | --- | --- | --- | --- | --- | --- | --- | --- | --- |
| isotype hIgG4 antibody (negative control) | 32.2 | 93.7 | 6.8 | 73 |  |  |  |  |  |  |  |  |  |  |  |  |  |  |  |  |
| B1 |  |  |  |  | ~0.2 | 0.51 | 19100 | ~0.3 | ~0.02 | 0.387 | 24300 | ~0.07 | 0.385 | 0.000252 | 656000 | ~0.1 | ~0.08 | ~0.03 |  |  |
| B2 |  |  |  |  | ~0.2 | 0.134 | 18400 | ~0.3 | ~0.02 | 0.0842 | 22400 |  | 0.143 | 0.000234 | 1.64e+06 |  |  | ~0.04 |  |  |
| B3 |  |  |  |  | ~0.1 | 0.289 | 20800 | ~0.2 | ~0.01 | 0.31 | 26000 |  | 0.258 | 0.000297 | 1.15e+06 |  |  | ~0.03 | ~0.1 |  |
| B4 |  |  |  |  |  | 0.0325 | 16300 |  |  | 0.0326 | 24400 |  | 0.18 | 0.000292 | 1.63e+06 |  |  |  |  | ~0.1 |
